{"source": "patent US5863775A", "about": "“Control of parasites” (The University of Leeds, priority 1994, dated 1999)", "molecules": {"B1": {"name": "Oc-I: oryzacystatin I, rice cystatin cloned from Oryza sativa L. japonica, expressed in E. coli with six N-terminal histidine residues (protein, UniProt P09229 27-140, looked up)", "Cysteine proteinase inhibitor …": "EAHRAGGEGEEKMSSDGGPVLGGVEPVGNENDLHLVDLARFAVTEHNKKANSLLEFEKLVSVKQQVVAGTLYYFTIEVKEGDAKKLYEAKVWEKPWMDFKELQEFKPVDASANA", "modifications": "N-terminal His6 tag", "notes": "oryzacystatin I, rice cystatin cloned from Oryza sativa L. japonica, expressed in E. coli with six N-terminal histidine residues"}, "B2": {"name": "egg white cystatin: protease inhibitor of cysteine proteases (a cystatin) in chick egg white (protein, UniProt P01038 24-139, looked up)", "Cystatin": "SEDRSRLLGAPVPVDENDEGLQRALQFAMAEYNRASNDKYSSRVVRVISAKRQLVSGIKYILQVEIGRTTCPKSSGDLQSCEFHDEPEMAKYTTCTFVVYSIPWLNQIKLLESKCQ"}}, "key": {"[1]": {"test_system": "Ascaridia galli cysteine protease", "test": "Inhibition of cysteine protease fraction from Ascaridia galli", "format": "biochemical"}, "[2]": {"test_system": "Ascaripain from Ascaris suum", "test": "Sensitivity of Ascaripain to protease inhibitors", "format": "biochemical", "source_text": "Ascaripain from Ascaris suum is similar to Ascaridia cysteine protease. Both prefer hydrolysis of Z-Phe-Arg-aminomethylcoumarin and both have limited action on Z-Phe-Arg-Arg-aminomethylcoumarin and Bz-Arg-aminomethylcoumarin. […] Pepstatin and serine protease inhibitors have no effect."}, "Caenorhabditis elegans": {"test_system": "Caenorhabditis elegans", "test": "C. elegans feeding trials on cystatin-supplemented medium", "format": "in vivo", "details": "for larvae that achieved normal development to adulthood: hatched and left to develop on supplemented media; for larvae that completed development: hatched on supplemented media, then transferred to normal media; for mean eggs laid per hermaphrodite: hermaphrodites on supplemented plates, 2.5 mg 1^-1, ten replicates", "method": "Caenorhabditis elegans was cultured on NGM agar carrying a lawn of OP50 E. coli as described by Wood (1988). Populations were maintained for 5 days after which time an agar plug from the colony plate was inserted onto fresh media. When required, the Oc-I (see Example 6) or BSA was added to the cooled medium to a final concentration of 2.5 mg 1^-1 just before polymerisation. Single nematodes were transferred from non-supplemented solid agar plates to plates containing Oc-I or BSA.\nFeeding trials were set-up using C. elegans to examine the effect of Oc-I on nematode survival and growth. As soon as hermaphrodites became apparent on normal agar they were transferred to individual plates containing either Oc-I or BSA and egg laying was observed. Ten replicates were carried out for each condition.\nSubsequently the larvae hatched under normal conditions were removed to media supplemented with either Oc-I or BSA. 50 larvae were removed at 6 h, 12 h, 24 h and 30 h (corresponding to the four larval stages L1, L2, L3 and L4 respectively).\nLarvae of C. elegans were transferred to agar plates with E. coli in which the medium was supplemented with 0-10 mg/L of Oc-I and the subsequent mortality of the animals during feeding was estimated from activity of the animals."}, "Ascaridia galli": {"test_system": "Ascaridia galli", "test": "Ascaridia galli worms held in vitro for 4 days with maize inhibitor", "method": "35 day old Ascaridia were removed from the host and thoroughly rinsed with 0.9% (w/v) NaCl in distilled water before transfer to 3 cm plastic Petri-dishes containing basic culture medium: CaCl2 2H2 O (0.24 mg/ml), Na2 HCO, (0.2 mg/ml), NaCl (9.0 mg/ml) and D-glucose. (1 mg/ml). Streptomycin sulphate (100 mg) and penicillin (60 u) were included to reduce microbial contamination.\nThree treatments of five replicates containing 4 worms each were used to assess the potency, of the maize inhibitor. Each treatment was carried out in the basal culture medium supplemented with:\n(i) 0.5 mg/ml bovine serum albumin (BSA);\n(ii) 0.5 mg/ml maize protein recovered by the batch method of which zeacystatin was estimated to be at 22 μg/ml;\n(iii) no supplement to the medium.\nThe worms were kept for 4 days in the dark at 37° C. and solutions changed daily. Zeacystatin concentration was estimated using a papain inhibition assay as previously and by comparison of the inhibition derived from the batch method with that achieved for the zeacystatin obtained by affinity chromatography earlier."}, "[3]": {"test_system": "RH strain Toxoplasma gondii in MDBK cells", "test": "Toxoplasma gondii growth in MDBK cell culture", "format": "cell-based", "details": "24 hours", "method": "Tachyzoites of T. gondii were produced by intraperitoneal passage in Tuck's Number 1 outbred mice, approximately 10^7 parasites are injected intra-peritoneally and parasites for culture were harvested three days later by peritoneal lavage with F12 medium and used immediately.\nMDBK cells were plated onto 13 mm cover-slip cultures at a density of 1×10^5 per cover slip and incubated overnight in HAM's F12 medium (GIBCO) plus 10% foetal calf serum at 37° C. Tachyzoites of RH strain Toxoplasma gondii (2×10^6) were loaded onto each cover slip and incubated for 4 hours at 37° C. to allow invasion of the DBK cells. Cultures were then washed with F12 medium to remove extracellular parasites and the inhibitor was added at a concentration of 0, 30 or 120 μg/ml. The cultures were incubated for a further 24 hours at 37° C. and then removed, washed with PBS, fixed with Bouin's solution and stained with Geimsa. Parasite growth was assessed by scoring approximately 200 cells for the number of infected cells and the total number of parasites in the sample."}, "[4]": {"details": "30 h on normal media (L4) before transfer to supplemented media"}}, "note": "Where a SMILES comes first, the peptide text is derived from it. [ ]: non-standard residue; d: D form. The star is where a group is joined. Sta = CC(C)C[C@H](N)[C@@H](O)CC(=O)O; Isovaleryl = CC(C)CC(=O)*", "data": [{"molecule": "CC(C)C[C@H](NC(=O)[C@H]1O[C@@H]1C(=O)O)C(=O)NCCCCN=C(N)N", "note": "[E64]", "values": [{"measurement": "sensitivity of Ascaridia cysteine protease to inhibitor", "setting": "[1]", "result": "highly sensitive"}, {"measurement": "inhibition of proteolytic activity of protease from Ascaridia galli", "setting": "[1]; 10 μM E64, pre-incubated 20 min at 37° C., Z-Phe-Arg-β-napthylamine, FIG. 6", "result": "over 90%"}, {"measurement": "sensitivity of Ascaripain from Ascaris suum to inhibitor", "setting": "[2]", "result": "highly sensitive"}]}, {"molecule": "CC(C)CC(=O)N[C@H](C(=O)N[C@H](C(=O)N[C@@H](CC(C)C)[C@@H](O)CC(=O)N[C@@H](C)C(=O)N[C@@H](CC(C)C)[C@@H](O)CC(=O)O)C(C)C)C(C)C", "note": "[Pepstatin] (Isovaleryl-VV[Sta]A[Sta]-OH)", "values": [{"measurement": "sensitivity of Ascaridia cysteine protease to inhibitor", "setting": "[1]", "result": "no effect"}, {"measurement": "sensitivity of Ascaripain from Ascaris suum to inhibitor", "setting": "[2]", "result": "no effect"}]}, {"molecule": "bovine serum albumin [BSA, reference compound]", "values": [{"measurement": "larvae that achieved normal development to adulthood", "setting": "Caenorhabditis elegans", "result": 95, "unit": "%"}, {"measurement": "juveniles developing into adult nematodes", "setting": "Caenorhabditis elegans; hatched from eggs laid on supplemented media, transferred to normal media", "result": "All"}, {"measurement": "larvae that completed development", "setting": "Caenorhabditis elegans", "result": 96.0, "unit": "%"}, {"measurement": "mean eggs laid per hermaphrodite", "setting": "Caenorhabditis elegans", "result": 300}, {"measurement": "Activity Score of A. galli", "setting": "Ascaridia galli; 0.5 mg/ml supplement in basic medium (maize protein: zeacystatin estimated 22 μg/ml), 4 days, dark, 37° C., scale 0 (dead) to 3 (frequently active)", "result": "2.75 ± 0.35"}, {"measurement": "state of worms in culture", "setting": "Ascaridia galli; 0.5 mg/ml supplement, 4 days at 37° C.", "result": "remained active for 4 days"}]}, {"molecule": "B1", "values": [{"measurement": "number parasites/cell", "setting": "[3]; 30 μg/ml", "result": "6.3 ± 0.63"}, {"measurement": "% cells infected", "setting": "[3]; 30 μg/ml, listed as Inhibitor", "result": "66 ± 2", "unit": "%"}, {"measurement": "% cells infected", "setting": "[3]; 30 μg/ml, listed as inhibitor", "result": "66±2", "unit": "%"}, {"measurement": "number parasites/cell", "setting": "[3]; 120 μg/ml, P<0.05, listed as Inhibitor", "result": "4.2 ± 0.17"}, {"measurement": "number parasites/cell", "setting": "[3]; 120 μg/ml, P<0.05, listed as inhibitor", "result": "4.2±0.17"}, {"measurement": "% cells infected", "setting": "[3]; 120 μg/ml, listed as Inhibitor", "result": "59 ± 0.6", "unit": "%"}, {"measurement": "% cells infected", "setting": "[3]; 120 μg/ml, listed as inhibitor", "result": "59±0.6", "unit": "%"}, {"measurement": "larvae that did not reach the adult stages", "setting": "Caenorhabditis elegans; [4]", "result": 24, "unit": "%"}, {"measurement": "larvae that reached adult male or hermaphrodite stages", "setting": "Caenorhabditis elegans; [4]", "result": 76, "unit": "%"}, {"measurement": "eggs hatched", "setting": "Caenorhabditis elegans; cystatin present in the medium", "result": "Greater than 95%"}, {"measurement": "larvae that achieved normal development to adulthood", "setting": "Caenorhabditis elegans", "result": "less than 2%"}, {"measurement": "larvae that completed development", "setting": "Caenorhabditis elegans", "result": 97.0, "unit": "%"}, {"measurement": "mean eggs laid per hermaphrodite", "setting": "Caenorhabditis elegans", "result": 300}, {"measurement": "recovery of larvae after transfer to fresh unsupplemented media", "setting": "Caenorhabditis elegans; larvae which failed to develop on Oc-I plates", "result": "failed to respond to the fresh food source and showed no signs of further development"}, {"measurement": "LD50 for mortality of C. elegans larvae", "setting": "Caenorhabditis elegans; medium supplemented with 0-10 mg/L, probit analysis, FIG. 10", "result": "approximately 7 mg OcI per liter of medium"}, {"measurement": "larvae developing further to the mature adult stages", "setting": "Caenorhabditis elegans; transferred 6, 12 or 24 h after hatching (L1, L2, L3) to supplemented media", "result": "none"}]}, {"molecule": "B2", "values": [{"measurement": "sensitivity of Ascaridia cysteine protease to inhibitor", "setting": "[1]", "result": "highly sensitive"}, {"measurement": "sensitivity of Ascaripain from Ascaris suum to inhibitor", "setting": "[2]", "result": "highly sensitive"}]}]}
